Patent US20240002497A1 (Merck Sharp & Dohme, published 2024)
Read-outs that look alike come from different tables or passages of the source.

What was measured:
huNav1.7α+β1 [1] = molecular target: T1, huNav1.7α+β1 (human, UniProt Q15858 1-1988; Q07699 19-218); assay: binding FACS, HEK293 cells
T1 construct: also called huNav1.7-beta1; HEKa/β1
Outline: (§1)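 Purified FLAG3-tagged ISVDs incubated with cells (1×10^5 cells/well) in PBS/10% FBS/NaN₃ for 30 minutes at 4° C. Bound ISVD detected via murine anti-Flag by flow cytometry; dead cells excluded with 1 μg/mL propidium iodide. Crude periplasmic extracts were also screened for huNav1.7α binding without huNav1.5a binding.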

huNav1.3α = molecular target: T2, huNav1.3α (human, UniProt Q9NY46 1-2000); assay: binding FACS on stable cell lines
T2 construct: also called huNav1.3 (alpha subunit)

huNav1.4α = molecular target: T3, huNav1.4α (human, UniProt P35499 1-1836); assay: binding FACS on stable cell lines
T3 construct: also called huNav1.4 (alpha subunit)

huNav1.6α = molecular target: T4, huNav1.6α (human, UniProt Q9UQD0 1-1980); assay: binding FACS on stable cell lines
T4 construct: also called huNav1.6 (alpha subunit)

huNav1.8α = molecular target: T5, huNav1.8α (human, UniProt Q9Y5Y9 1-1956); assay: binding FACS on stable cell lines
T5 construct: also called huNav1.8 (alpha subunit)

huNav1.1α = huNav1.1α (human, UniProt P35498 1-2009); assay: binding FACS on stable cell lines
huNav1.2α = molecular target: T6, huNav1.2α (human, UniProt Q99250 1-2005); assay: binding FACS on stable cell lines
T6 construct: also called huNav1.2 (alpha subunit)

huNav1.7α+β1-β2-β3 [2] = molecular target: T7, huNav1.7α+β1-β2-β3 (human, UniProt Q15858 1-1988; Q07699 19-218; O60939 30-215; Q9NY72 23-215); assay: binding FACS, CHO FlpIn cells
T7 construct: 5N11S variant; also called huNav1.7-beta1-beta2-beta3; huNav1.7α+Navβ1-Navβ2-Navβ3
Outline: as §1

rhNav1.7α+β1-β2-β3 = molecular target: T8, rhNav1.7α+β1-β2-β3 (rhesus monkey α subunit with human β …); assay: binding FACS, CHO FlpIn cells
T8 construct: P2A cleaves it into α, β1, β2, β3; also called rhNav1.7-beta1-beta2-beta3
Outline: as §1

huNav1.7α+β1-β2-β3 [3] = molecular target: T7, huNav1.7α+β1-β2-β3; assay: binding FACS, HEK FlpIn cells
Outline: as §1

huNav1.5α+β1-β2-β3 = molecular target: T9, huNav1.5α+β1-β2-β3 (human, UniProt Q14524 1-2016; A5A6L6 19-218; O60939 30-215; Q2KI11 23-215); assay: binding FACS, HEK FlpIn cells
T9 construct: in the cell P2A cleaves it into α, β1, β2, β3; also called huNav1.5-beta1-beta2-beta3
Outline: as §1

[4] = molecular target: T10, huNav157chimera14+β1-β2-β3 (human, UniProt Q07699 19-218; O60939 30-215; Q9NY72 23-215); assay: binding FACS with purified FLAG3-HIS6 tagged ISVDs
T10 construct: HEK FlpIn line; also called huNav157 chimera 14-beta1-beta2-beta3; Nav157ch14-β1-β2-β3
Protocol: (§2) Binding of the ISVDs to cell-expressed Nav1.7α was detected via murine anti-Flag (Sigma, catalog #F1804). Briefly, cells were resuspended in FACS buffer (PBS, 10% FBS, NaN₃) and transferred to a 96-well V-bottom plate at 1×10^5 cells/well. Purified FLAG3-tagged ISVD was diluted in FACS buffer and added to the cells for 30 minutes at 4° C. […] Prior to the read-out, the samples were resuspended in 1 μg/mL propidium iodide (Sigma, catalog #P4170) to exclude dead cells. Between each step, the cells were centrifuged for 5 minutes at 200 grams and washed with 100 μL/well FACS buffer.
Crude periplasmic extracts containing ISVDs from phage display selections (as described above) were screened in FACS for binding to huNav1.7α but not to huNav1.5a. […] As used in Table 8, the drawings, and throughout the description, Navβ1, Navβ2, and Navβ3 are human homologs unless specifically identified otherwise.

[5] = molecular target: T11, huNav1.7α (human Nav1.7 alpha subunit, expressed without β subunits) (human, UniProt Q15858 1-1988); assay: binding FACS, HEKa cells
T11 construct: also called HEK293 human Nav1.7α; HEKa Nav1.7α

[6] = molecular target: T11, huNav1.7α (human Nav1.7 alpha subunit, …); assay: binding FACS, HEKa cells; remark: listed apart in the source
[7] = molecular target: T12, huNav1.7α + β1 (human Nav1.7α co-expressed with Navβ1) (human, UniProt Q15858 1-1988; Q07699 19-218); assay: binding FACS, HEKa/β1 cells
T12 construct: also called HEK293 human Nav1.7α + β1; HEKa/β1 Nav1.7α

[8] = molecular target: T12, huNav1.7α + β1 (human Nav1.7α …); assay: binding FACS, HEKa/β1 cells; remark: listed apart in the source
[9] = molecular target: T13, huNav1.7α + β1-β2-β3 (human Nav1.7α co-expressed with Navβ1, Navβ2 and Navβ3) (human); assay: binding FACS, HEK FlpIn cells
T13 construct: also called huNav1.7-beta1-beta2-beta3

[10] = molecular target: T14, huNav157 chimera 14 + β1-β2-β3 (human); assay: binding FACS, HEK FlpIn cells
T14 construct: Chimera of huNav1.7α (extracellular loops and transmembrane helices) and huNav1.5α (intracellular loops); also called Nav157ch14-β1-β2-β3; huNav157 chimera 14-beta1-beta2-beta3

huNav157 chimera 14 [11] = molecular target: T15, huNav157 chimera 14 (human); assay: binding FACS, HEK FlpIn cells
T15 construct: Chimera without β subunits; also called Nav157ch14

[12] = molecular target: T14, huNav157 chimera 14 + β1-β2-β3; assay: binding FACS, HEK FlpIn cells; remark: listed apart in the source
huNav157 chimera 14 [13] = molecular target: T15, huNav157 chimera 14; assay: binding FACS, HEK FlpIn cells; remark: listed apart in the source
[14] = molecular target: T11, huNav1.7α (human Nav1.7 alpha subunit, …); assay: binding FACS, huNav1.7α without β; minus = weaker than reference
huNav1.7α = molecular target: T16, huNav1.7α (human, UniProt Q15858 1-1988); assay: binding FACS, HEKa cells
T16 construct: HEK cells expressing the α subunit alone; also called HEKa; HEK huNav1.7α
Outline: (§3)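 FLAG3-tagged ISVD, 30 min, 4° C, FACS buffer (PBS/10% FBS/NaN₃); 1×10^5 cells/well; detection murine anti-Flag; PI 1 μg/mL live gate; washes between steps.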

huNav1.7α+β1 [15] = molecular target: T1, huNav1.7α+β1; assay: binding FACS, HEKa/β1 cells
Outline: as §3

[16] = molecular target: T10, huNav157chimera14+β1-β2-β3; assay: binding FACS, HEK FlpIn cells
Outline: as §1

huNav1.7α+β1-β2-β3 [17] = molecular target: T7, huNav1.7α+β1-β2-β3; assay: binding FACS, HEK FlpIn cells; remark: listed apart in the source
[18] = molecular target: T17, huNav1.7(N146S, V194I, F276V, R277Q, E281V, V331M, E504D, D507E, S508N, N533S)-β1-β2-β3 (human, UniProt Q15858 1-1988; Q07699 19-218; O60939 30-215; Q9NY72 23-215); assay: FACS on transiently transfected HEK293T cells
T17 construct: Transiently on HEK293T cells; The text prints V1941 for V194I; also called chimeric variant of huNav1.7α with all DI huNav1.7α-rhNav1.7α polymorphisms
Protocol: as §2
FACS binding studies (as described above) were performed on HEK293T cells transiently transfected with a chimeric variant of huNav1.7α in which all the huNav1.7α-rhNav1.7α polymorphisms of DI are present (N146S, V1941, F276V, R277Q, E281V, V331M, E504D, D507E, S508N, N533S). Replacing the huNav1.7α DI sequence for that of rhNav1.7α is sufficient to abolish the binding of F0103262CO2, F0103265B04, F0103262B06, and F0103265A11 to huNav1.7α, recapitulating the absence of binding on rhNav1.7α (see FIGS. 21A-21B).

T2 sequence (Q9NY46 whole entry): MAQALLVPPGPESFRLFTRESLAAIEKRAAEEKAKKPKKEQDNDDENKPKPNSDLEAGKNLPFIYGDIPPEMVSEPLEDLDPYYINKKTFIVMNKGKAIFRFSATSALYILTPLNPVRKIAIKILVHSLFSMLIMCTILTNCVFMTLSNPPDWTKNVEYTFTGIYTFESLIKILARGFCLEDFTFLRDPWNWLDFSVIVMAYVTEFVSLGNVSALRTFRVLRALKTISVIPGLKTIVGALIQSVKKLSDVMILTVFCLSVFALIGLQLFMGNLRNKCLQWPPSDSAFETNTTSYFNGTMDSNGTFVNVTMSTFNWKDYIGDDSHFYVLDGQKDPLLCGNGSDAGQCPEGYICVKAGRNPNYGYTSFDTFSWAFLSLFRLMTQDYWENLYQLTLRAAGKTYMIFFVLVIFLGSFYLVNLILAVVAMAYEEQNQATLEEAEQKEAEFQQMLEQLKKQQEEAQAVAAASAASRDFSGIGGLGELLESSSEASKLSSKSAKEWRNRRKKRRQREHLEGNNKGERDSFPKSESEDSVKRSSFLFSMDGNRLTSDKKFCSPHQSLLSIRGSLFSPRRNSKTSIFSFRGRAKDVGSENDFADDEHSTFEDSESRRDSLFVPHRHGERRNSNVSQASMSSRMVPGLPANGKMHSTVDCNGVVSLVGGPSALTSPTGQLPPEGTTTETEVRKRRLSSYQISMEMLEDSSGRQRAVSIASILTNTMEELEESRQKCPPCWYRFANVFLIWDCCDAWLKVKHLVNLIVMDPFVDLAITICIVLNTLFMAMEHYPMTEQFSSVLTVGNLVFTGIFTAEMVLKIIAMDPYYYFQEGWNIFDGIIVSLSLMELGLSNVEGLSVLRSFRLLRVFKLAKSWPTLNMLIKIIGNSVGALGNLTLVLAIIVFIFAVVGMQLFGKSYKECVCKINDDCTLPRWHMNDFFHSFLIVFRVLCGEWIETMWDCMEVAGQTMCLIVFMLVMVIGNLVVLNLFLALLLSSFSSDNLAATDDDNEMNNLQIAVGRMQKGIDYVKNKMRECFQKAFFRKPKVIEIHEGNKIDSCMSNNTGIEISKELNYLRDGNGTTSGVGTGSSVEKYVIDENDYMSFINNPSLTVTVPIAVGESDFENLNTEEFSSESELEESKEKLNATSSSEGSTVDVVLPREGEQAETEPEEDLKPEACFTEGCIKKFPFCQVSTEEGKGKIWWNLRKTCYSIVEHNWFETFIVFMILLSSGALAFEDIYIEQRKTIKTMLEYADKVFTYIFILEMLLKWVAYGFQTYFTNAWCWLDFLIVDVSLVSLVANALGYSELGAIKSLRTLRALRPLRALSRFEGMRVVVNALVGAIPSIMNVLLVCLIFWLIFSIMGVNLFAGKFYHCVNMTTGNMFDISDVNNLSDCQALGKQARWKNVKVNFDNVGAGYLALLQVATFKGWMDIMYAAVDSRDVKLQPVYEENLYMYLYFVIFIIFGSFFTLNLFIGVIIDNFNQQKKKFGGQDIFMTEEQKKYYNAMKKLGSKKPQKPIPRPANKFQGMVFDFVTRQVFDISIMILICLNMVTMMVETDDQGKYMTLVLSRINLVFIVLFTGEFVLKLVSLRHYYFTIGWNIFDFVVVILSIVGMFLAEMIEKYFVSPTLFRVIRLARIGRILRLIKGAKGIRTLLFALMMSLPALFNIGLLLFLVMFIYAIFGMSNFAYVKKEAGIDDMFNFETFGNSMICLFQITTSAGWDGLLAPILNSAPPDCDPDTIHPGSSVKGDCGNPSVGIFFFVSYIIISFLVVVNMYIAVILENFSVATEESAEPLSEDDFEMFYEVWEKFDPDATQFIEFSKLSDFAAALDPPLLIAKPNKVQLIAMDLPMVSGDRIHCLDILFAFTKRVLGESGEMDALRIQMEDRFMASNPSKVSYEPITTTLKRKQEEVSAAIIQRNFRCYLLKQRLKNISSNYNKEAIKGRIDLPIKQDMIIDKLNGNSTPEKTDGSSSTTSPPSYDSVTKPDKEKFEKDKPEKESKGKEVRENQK
T5 sequence (Q9Y5Y9 whole entry): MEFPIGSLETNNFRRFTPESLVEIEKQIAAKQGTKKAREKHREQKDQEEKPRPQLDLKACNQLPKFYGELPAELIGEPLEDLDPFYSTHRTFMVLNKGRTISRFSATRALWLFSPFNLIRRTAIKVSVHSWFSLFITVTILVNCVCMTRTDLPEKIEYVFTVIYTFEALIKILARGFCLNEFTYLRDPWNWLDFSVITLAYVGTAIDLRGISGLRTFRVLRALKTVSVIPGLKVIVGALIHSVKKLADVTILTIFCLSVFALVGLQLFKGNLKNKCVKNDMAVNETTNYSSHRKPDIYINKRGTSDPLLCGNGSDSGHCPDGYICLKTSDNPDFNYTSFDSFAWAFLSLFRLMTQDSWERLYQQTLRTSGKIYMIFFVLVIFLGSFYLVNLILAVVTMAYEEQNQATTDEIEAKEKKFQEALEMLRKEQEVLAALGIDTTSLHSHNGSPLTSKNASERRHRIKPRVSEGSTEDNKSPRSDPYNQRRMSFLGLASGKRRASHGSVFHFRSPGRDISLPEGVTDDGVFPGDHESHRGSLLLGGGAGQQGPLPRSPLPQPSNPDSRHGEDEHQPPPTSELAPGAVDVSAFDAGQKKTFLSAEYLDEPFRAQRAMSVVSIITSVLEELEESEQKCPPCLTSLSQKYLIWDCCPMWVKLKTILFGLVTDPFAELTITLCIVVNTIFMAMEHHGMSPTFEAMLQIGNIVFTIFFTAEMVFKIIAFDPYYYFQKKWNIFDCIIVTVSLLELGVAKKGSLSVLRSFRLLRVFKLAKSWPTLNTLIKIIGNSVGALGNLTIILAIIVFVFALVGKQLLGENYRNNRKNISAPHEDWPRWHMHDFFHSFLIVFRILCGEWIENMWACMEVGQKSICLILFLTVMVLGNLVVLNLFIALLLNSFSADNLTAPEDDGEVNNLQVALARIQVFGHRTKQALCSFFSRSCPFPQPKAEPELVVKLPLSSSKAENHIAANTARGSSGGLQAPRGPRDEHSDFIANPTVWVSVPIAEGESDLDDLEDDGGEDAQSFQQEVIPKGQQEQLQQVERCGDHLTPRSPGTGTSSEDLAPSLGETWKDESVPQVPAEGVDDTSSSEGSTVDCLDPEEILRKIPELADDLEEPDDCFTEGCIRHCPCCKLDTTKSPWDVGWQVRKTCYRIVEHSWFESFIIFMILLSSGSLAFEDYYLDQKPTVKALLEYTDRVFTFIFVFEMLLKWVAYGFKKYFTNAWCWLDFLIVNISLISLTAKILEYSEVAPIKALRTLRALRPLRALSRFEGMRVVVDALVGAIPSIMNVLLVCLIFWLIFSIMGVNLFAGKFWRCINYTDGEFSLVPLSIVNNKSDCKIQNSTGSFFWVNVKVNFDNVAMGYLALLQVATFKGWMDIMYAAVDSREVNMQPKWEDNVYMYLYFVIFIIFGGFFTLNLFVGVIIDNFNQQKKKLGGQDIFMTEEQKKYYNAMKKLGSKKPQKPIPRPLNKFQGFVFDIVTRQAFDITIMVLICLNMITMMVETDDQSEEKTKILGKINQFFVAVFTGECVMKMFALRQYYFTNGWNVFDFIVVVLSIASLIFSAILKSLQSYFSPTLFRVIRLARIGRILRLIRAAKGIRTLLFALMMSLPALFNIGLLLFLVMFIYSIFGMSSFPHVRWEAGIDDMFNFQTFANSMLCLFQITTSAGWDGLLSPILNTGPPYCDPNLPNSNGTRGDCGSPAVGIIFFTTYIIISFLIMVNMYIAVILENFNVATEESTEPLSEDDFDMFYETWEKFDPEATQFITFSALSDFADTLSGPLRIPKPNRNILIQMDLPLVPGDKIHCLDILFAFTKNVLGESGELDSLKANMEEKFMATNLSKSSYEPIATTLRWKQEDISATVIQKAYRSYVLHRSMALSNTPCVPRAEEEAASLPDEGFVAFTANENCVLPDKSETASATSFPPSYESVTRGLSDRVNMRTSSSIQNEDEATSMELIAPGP

Binder | EC50 (huNav1.7α+β1 [1]) [nM] | binding result (huNav1.3α) | binding result (huNav1.4α) | binding result (huNav1.6α) | binding result (huNav1.8α) | binding result (huNav1.1α) | binding result (huNav1.2α) | EC50 (huNav1.7α+β1-β2-β3 [2]) [nM] | binding result (rhNav1.7α+β1-β2-β3) | EC50 (huNav1.7α+β1-β2-β3 [3]) [nM] | binding result (huNav1.5α+β1-β2-β3) | Bmax [5] [%] | EC50 [5] [nM] | EC50 [7] [nM] | EC50 [10] [nM] | Bmax (huNav157 chimera 14 [11]) [%] | EC50 (huNav157 chimera 14 [11]) [nM] | EC50 [16] [nM] | binding result [18] | further results
F0103362B08 (parental)-FLAG-HIS6 (VHH) VHH: EVQLVESGGGLVQAGGSLRLSCAASVRPFSTSAMGWFRQAPEKEREAVAGILWNGIVTYYADSVKGRFTISRDNAKNEVYLQMNKLKPEDTAVYYCALDRDYGGRSFSAYEYEYWGQGTLVTVSS | 59 | no binding | no binding | no binding | no binding | no binding | no binding | 110 | no binding | 42 | no binding | – | – | – | – | – | – | – | – | binding result [4]: binds
F0103387G05 (parental)-FLAG-HIS6 (VHH) VHH: EVQLVESGGGLVQAGGSLRLSCDASGRILRIGYMRWHRQGAGKQREFVARITDDSATDYADSVKGRFTISRDNAKNTVYLQMNNLNPEDTAVYYCEALVTASVRGGSIHSGTYWGRGTLVTVSS | – | – | – | – | – | – | – | – | – | – | – | 100 | 3.1 | 1.9 | 3.6 | 100 | 2.8 | – | – | EC50 [6]: 3.1 nM; EC50 [8]: 1.9 nM; EC50 [9]: 2.7 nM; EC50 [12]: 3.6 nM; EC50 (huNav157 chimera 14 [13]): 2.8 nM
F010301647 (VHH, also called F0103387G05(L11V, A14P, F47L, N82bS, N83R, V89L, R105Q); F47L) VHH: EVQLVESGGGVVQPGGSLRLSCDASGRILRIGYMRWHRQGAGKQRELVARITDDSATDYADSVKGRFTISRDNAKNTVYLQMNSLRPEDTALYYCEALVTASVRGGSIHSGTYWGQGTLVTVSS | – | – | – | – | – | – | – | – | – | – | – | 75 | 8 | 4 | 4.7 | 80 | 12 | – | – | EC50 fold change compared to reference [14]: -2 fold
F0103265A11 (parental)-FLAG-HIS6 (VHH, also called F01033265A11) VHH: EVQLVESGGGLVQPGGSLRLSCAASGMLFNANTQGWYRQAPGKQRELVAFIFSGGYTNYVDSVKGRFTISRDNAKRTMYLQMNSLKPEDSAIYYCSLSRYLGQGTLVTVSS | 8.4 | no binding | no binding | no binding | no binding | no binding | no binding | 66 | no binding | 37 | no binding | – | – | – | – | – | – | 34 | no binding (tested: 1 µM) | binding result (huNav1.7α): no binding; Bmax relative to '535 (huNav1.7α+β1 [15]): 34%; EC50 (huNav1.7α+β1 [15]): 11 nM; EC50 (huNav1.7α+β1-β2-β3 [17]): 77 nM
F0103262B06 (parental)-FLAG-HIS6 (VHH) VHH: EVQLVESGGGLVQPGGSLRLSCAGSTRTFSTYAMGWFRQAPGREREFVAHINFSGSSTRYADSVKGRFTISRDNAKNMGYLQMNSLKPEDTAVYYCAARWVAGPPRYDYEYWGQGTLVTVSS | 20 | no binding | no binding | no binding | no binding | no binding | no binding | 19 | no binding | 25 | no binding | – | – | – | – | – | – | 16 | no binding (tested: 1 µM) | –
